Experimental data as given in doi:10.1101/2023.08.16.553618, “Structure of C. elegans TMC-2 complex suggests roles of lipid-mediated subunit contacts in mechanosensory transduction” (bioRxiv, 2023).

Biological target: the molecule itself
Experiment: cryo-EM structure; single particle cryo-EM of the native TMC-2 complex isolated from worms in GDN with 1 mM CaCl2; cis-dimeric particles; 2 nm carbon grids

B1: C. elegans TMC-2 (transmembrane channel-like protein 2), native, with C-terminal mVenus-3C-3xFLAG (natural protein, UniProt Q11069 1-1203, looked up)
chain: MPKSGAHQPLVRHDTDDGGETGQSVKSLADVSEEEIDSRMSRRSSVIADLLSLFRRSSSVLVRPHTRLGNPNFDDDDDEFDEEDDKEASKDRILKKIQQKKEIIQKLRGQPWYMKRKRRTLKVAQKHLQQQEAKVSKARLYKAEAGRRLTQASRWLDNLKIYLIPWEAKIRKIESHFGSVVSSYFTFHRWVLGVNITITFIMCMFVVIPEWLADSRTQFGDDRYNKTKAIKVMPPAVRARADELSTVWDFGGYFQYSLLFYGFYSKETFFGETIKYRVPVAYFFCNIFILGFSLFIILRKMAANNRRGTLSSGKTQQYLFNWKAFTGWDYTIGNPETAGNVYMANVIKFREAINDDKQKPSDKHPWIRFVARVLTNLFICAMYVFSIWAIMQCGTLKGEHFFAQNATAITISLITLVFPNIFDLLGKIEKLHPRNALRFQLGRVLVLYILNYYTLIYSLMLQLEHLQKEKNASDNPISALGHPGDAIGRTIRETVLPRYPVDNNPHTYYSYAPVTTTPIPATSSWTTVLPDFGPFGVYNPKASVTKDDTVFSSPVVETHMFGPNSDWNETTVNAASPTGATTRASLRMSQGGLCWETIIGQEITKLVTMDLYMTVASIFLIDFLRGLACRYLNLYWPWDLERTFPEYGEFKVAENVLHLVNNQGMIWLGLFFVPLLPMLNNIKLIILMYIRGWAAMTCNVPASQIFRASRSSNFFFALLILFLFLCTLPVGFVIASKTPSKSCGPFGNQSFFYSVITDVLHENLDKTLVNGIKYSLSPGIIIPVLVLLSLVIYFLIAMVTGLSQANQDLSFQLMVERTEEKKKIFELAGGKKKKSKDNTFGKQKPKQLLPPPTKGVSSDDDSQHNRSTAKSVSGRQFVPSLGSVSEVDHSTGEEQSSDSESTTSSLPPKLSLRQRFLVCIGWADPNKYGRHDDIEMEEGGGRLRELSTGSETDSDDEDSEKSNRDMSYRTAIQSFDQNSQSASASSSKSTTTAPSNSEMRIEITENPLHTYITPLRIEKKSSASSSSSSHQPSSSIEKQAARRLLQPISTTHNIRYGVATVENSSQDPTRPPSTDDSLGDPALHEPLWANLNPHSSYTSAMMSPIMNEVMSNDETTDDEKGRLIPDRPPIPHSPRELKRLKREKDQQSESGSKPSTPRPPRFRISMSPPRKPPSEKNDSDSSNRKYEMRVEKSPKKPKKSDND
modifications: N-glycans at N225 and N748 (density features)
notes: TMC-2, C. elegans, Wormbase B0416.1a; tag inserted prior to the stop codon of the endogenous gene; A 3C (PreScission) site lies between mVenus and 3xFLAG; The complex was captured by the 3xFLAG tag and eluted by 3C cleavage, so the sample for SEC, mass spectrometry and cryo-EM has mVenus but no 3xFLAG; Two copies stand in the cis-dimeric complex; Not modelled in 8TKP: M1-A88, A472-T582, …
stoichiometry N: 2
